# Article PMC4922627
# Assays:
# [1] = molecular target: TEV-cleaved ICP35 (White spot syndrome virus); assay: SEC; HiLoad 16/600 Superdex 200; 20 mM Tris-HCl pH 8.0, 200 mM NaCl, 5 mM MgSO4; peak fractions checked by SDS-PAGE
# [2] = molecular target: TEV-cleaved ICP35 (White spot syndrome virus); assay: SDS-PAGE without boiling; purified protein loaded on 12% SDS-PAGE with and without boiling, Coomassie stain and Western blot; TEV-cleaved ICP35 concentrated to 10 mg/ml to induce oligomerization
substance,measurement,setting,value
TEV-cleaved ICP35 (domain or fragment),stoichiometry N,[1],2
same,stoichiometry N,[2],2
